Measurements: the supplement of paper PMC11780869

The sequences below were run on Bacillus subtilis (assay: cleaved RNA product abundance (RNA/gDNA barcode ratio) relative to median wild-type variant (ratio to wild type); higher = more accumulation of the downstream cleavage product). Conditions: experiment (reporter, strain, medium): exp 2b: truncated aprE reporter, strain BJT200; cleavage site: cggR-gapA (positions -7 to +36 mutated).
Procedure, shortened: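 Reporter mRNAs (truncated aprE or tetM) carrying barcoded, mutagenized RNase Y cleavage-site windows were made from oligos with a 9% error rate and integrated into the B. subtilis chromosome. Cultures grew in LB at 37°C from OD600 0.0003 to 0.3. Cleaved RNA was gel-selected, reverse transcribed and barcode-sequenced alongside genomic DNA barcodes, with UMI collapsing. Cleaved product abundance is the RNA:gDNA barcode ratio per variant, scaled to the median wild-type variant.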

Point of comparison: “ACAGACGAAGGAGCCGCAAAGAAGTTATTAAGGTATGAATAATCCCTCAATTTAAATATCTCTCACTTATTTAAA”, “cleaved RNA product abundance” value 0.0856. Against it:
- ACAGACGAAGGAGCCGCAAAGAAGATATTAAGGTATGAATAATCCCTCAATATAAATATCTCTCACTTATTTAAA — higher, 0.104
- ACAGACGAAGGAGCCGCAAAGAAGTTATTCAGGGATTAATAATCCCTCAATATAAATATCTCTCACTTATTTAAA — higher, 0.815
- ACAGACGAAGGAGCCGCTAAGAAGTTATTAAGGGATGAATAATCCCTAAATATAAATATCTCTCACTTATTTAAA — higher, 0.745
- ACAGACGAAGGAGCCGCGAAGAAGTTATTAAGGCATGAATAATCCCTCAATATAAATATCTCTCACTTATTTAAA — lower, 0.0773
- ACAGACGAAGGAGCCGCAAAAAAGTTATTAAGGGATGAATAATCCCTCAATATAAATGTCTCTCACTTATTTAAA — higher, 0.243
- ACAGACGAAGGAGCCGCAAATAAGTTATTAAGGCATGAATAATCCCTCAATATAAATATCTCTCACTTATTTAAA — higher, 0.0924
- ACAGACGAAGGAGCCGCAAAAAAGTTATAAAGAGATGAATAATCCCTCAATATAAATATCTCTCACTTATTTAAA — higher, 0.14
- ACAGACGAAGGAGCCGCAATGAAGTTATTAAGGGATGAATATTCCCTCAATATAAATATCTCTCACTTATTTAAA — higher, 0.573
- ACAGACGAAGGAGCCGCAAAGAAGTTATTAAAGGATGAATCATCCCTCAATATAAATATCTCTCACTTATTTAAA — higher, 0.178
- ACAGACGAAGGAGCCGCAAAGAAGTTGTTAAGGGATGAATAATACCTCAATATAAATATCTCTCACTTATTTAAA — higher, 0.101
- ACAGACGAAGGAGCCGCAAAGAAGTTATAAAGGCATGAATAATCCCTCAATATAAATATCTCTCACTTATTTAAA — higher, 0.122
- ACAGACGAAGGAGCCGCAAAGAAGGTATTAAGGGATGAATAATCCCTAAATATAAATATCTCTCACTTATTTAAA — higher, 0.994
- ACAGACGAAGGAGCCGCAAAGAAGTTATTTAGGGATTAATAATCCCTCAATATAAATATCTCTCACTTATTTAAA — higher, 0.951

Same assay, conditions: experiment (reporter, strain, medium): exp 4a: truncated aprE reporter, strain BJT201 with 2% xylose (RNase J1 expressed); cleavage site: cggR-gapA (positions -7 to +36 mutated)

Point of comparison: “ACAGACGAAGGAGCCGCAAAGAAGTTATTAAGGGATGAATAAGCCCTCAATATAAATAGCTCTCACTTATTTAAA”, “cleaved RNA product abundance” value 0.406. Against it:
- ACAGACGAAGGAGCCGCAAGGAAGTTATTAAGGGACGAATAATCCCTCAATATAAATATCTCTCACTTATTTAAA — higher, 0.614
- ACAGACGAAGGAGCCGCAAAGAAGATATTAAGGTATGAATAATCCCTCAATATAAATATCTCTCACTTATTTAAA — lower, 0.117
- ACAGACGAAGGAGCCGCAAAGAAGTTATTAAGTGATGAATAATCCCTCAATATAAACATCTCTCACTTATTTAAA — lower, 0.116
- ACAGACGAAGGAGCCGCAGAGAAGTTATCAAGGGATGAATAATCCCTCAATATAAATATCTCTCACTTATTTAAA — lower, 0.328
- ACAGACGAAGGAGCCGCAAAGAAGTTATTCAGGGATTAATAATCCCTCAATATAAATATCTCTCACTTATTTAAA — higher, 1
- ACAGACGAAGGAGCCGCACAGAAGTTATTAAGGGATGAATAATCCCTCAAAATAAATATCTCTCACTTATTTAAA — lower, 0.337
- ACAGACGAAGGAGCCGCAGAGAAGTTATTAAGGAATGAATAATCCCTCAATATAAATATCTCTCACTTATTTAAA — lower, 0.143
- ACAGACGAAGGAGCCGCAAAGAAGTTATTAAGGGATTGAATAATCCCTCAATATAAATATCTCTCACTTATTTAA — higher, 0.788
- ACAGACGAAGGAGCCGCTAAGAAGTTATTAAGGGATGAATAATCCCTAAATATAAATATCTCTCACTTATTTAAA — higher, 0.831
- ACAGACGAAGGAGCCGCAAAGAAGTTATTCTGGGATGAATAATCCCTCAATATAAATATCTCTCACTTATTTAAA — higher, 0.742
- ACAGACGAAGGAGCCGCAAAGAACTTATTAAGGGATGACTAATCCCTCAATATAAATATCTCTCACTTATTTAAA — lower, 0.382
- ACAGACGAAGGAGCCGCAATGAAGTTATTAAGTGATGAATAATCCGTCAATATAAATATCTCTCACTTATTTAAA — lower, 0.0953
- ACAGACGAAGGAGCCGCAAAAAAGTTATTAAGGGATGAATAATCCCTCAATATAAATGTCTCTCACTTATTTAAA — lower, 0.309
- ACAGACGAAGGAGCCGCAAATAAGTTATTAAGGCATGAATAATCCCTCAATATAAATATCTCTCACTTATTTAAA — lower, 0.0954
- ACAGACGAAGGAGCCGCAAAGAAGTTATTAAGTGATGAATAATCCCTCAACATAAATATCTCTCACTTATTTAAA — lower, 0.0935
- ACAGACGAAGGAGCCGCAAAGAAGTAATTAAGGGATGAATAATCCCTGAATATAAATATCTCTCACTTATTTAAA — lower, 0.253
- ACAGACGAAGGAGCCGCAAAGAAGTTATTAACGAATTAATAATCCCTCAATATAAATATCTCTCACTTATTTAAA — lower, 0.0842
- ACAGACGAAGGAGCCGCAAAGAAATTATTAAGGGATGAATAAGCCCTCAATATAAATATCTCTCACTTATTTAAA — higher, 0.416
- ACAGACGAAGGAGCCGCAAAGAAATTATTAAGGGATGAATAATCCCCCAATATAAATATCTCTCACTTATTTAAA — higher, 0.465
- ACAGACGAAGGAGCCGCAAATAAGTTATGAAGGGATGAATAATCCCTCAATATAAATATCTCTCACTTATTTAAA — higher, 0.558
- ACAGACGAAGGAGCCGCAATGAAGTTATTAAGGGATGAATATTCCCTCAATATAAATATCTCTCACTTATTTAAA — higher, 0.519
